Laboratory results reported in paper PMC9303552 (Angewandte Chemie (International Ed. in English), 2022).

B1: isolated TPR domain of CHIP (domain or fragment, human)
chain: EKSPSAQELKEQGNRLFVGRKYPEAAACYGRAITRNPLVAVYYTNRALCYLKMQQHEQALADCRRALELDGQSVKAHFFLGQCQLEMESYDEAIANLQRAYSLAKEQRLNFGDDIPSALRIAKKKRWNSIEERR
B2: GST-CHIP (carboxyl terminus of Hsp70 interacting protein, full length) (enzyme, human, UniProt Q9UNE7 1-303, looked up)
chain: MKGKEEKEGGARLGAGGGSPEKSPSAQELKEQGNRLFVGRKYPEAAACYGRAITRNPLVAVYYTNRALCYLKMQQHEQALADCRRALELDGQSVKAHFFLGQCQLEMESYDEAIANLQRAYSLAKEQRLNFGDDIPSALRIAKKKRWNSIEERRIHQESELHSYLSRLIAAERERELEECQRNHEGDEDDSHVRAQQACIEAKHDKYMADMDELFSQVDEKRKKRDIPDYLCGKISFELMREPCITPSGITYDRKDIEEHLQRVGHFDPVTRSPLTQEQLIPNLAMKEVIDAFISENGWVEDY
B3: Tau1-152 (domain or fragment, human, UniProt P10636-8 1-152, looked up)
chain: MAEPRQEFEVMEDHAGTYGLGDRKDQGGYTMHQDQEGDTDAGLKESPLQTPTEDGSEEPGSETSDAKSTPTAEDVTAPLVDEGAPGKQAAAQPHTEIPEGTTAEEAGIGDTPSLEDEAAGHVTQARMVSKSKDGTGSDDKKAKGADGKTKIA

Assays:
[1] = molecular target: T1, Tau 2N4R isoform (full-length Tau) (human, UniProt P10636-8 1-441); test: ITC
[2] = molecular target: T1, Tau 2N4R isoform (full-length Tau); test: NMR titration
[3] = molecular target: B2; test: NMR titration

Binder: B1
- Kd [1]: 360 µM

Binder: B2
- Kd [2]: 14 µM

Binder: B3
- binding result [3]: binds
